In article PMC10511788 (2023):

Target: M1-linked di-ubiquitin (UniProt P0CG48 1-76; P0CG48 1-76)
Assay: ITC

B1: mouse HOIL-1L NZF domain (residues Pro192-Gln250) T207E (domain or fragment)
chain: GPLGSPEPVGWQCPGCTFINKPERPGCEMCCRARPETYQIPASYQPDEEERARLAGEEEALRQYQQ
Kd: 15.9 µM
